Laboratory results as given in the Human Domainome abundance scans (Beltran et al. 2025).
± gives the uncertainty stated by the source.

B1: Metastasis-associated protein MTA3, residues 265 to 317; numbered along this chain, Q9BTC8 (parent)
chain: RDEMEEWSASEASLFEEALEKYGKDFNDIRQDFLPWKSLTSIIEYYYMWKTTD

Variants of: B1
Test: abundance fitness (aPCA) (normalised: wild type 0, dead -1); higher = more abundant; growth selection in yeast, the domain comes from the species named
Conditions: Homo sapiens

Variant	abundance fitness
RDEMEEWSASEASLFEEAKEKYGKDFNDIRQDFLPWKSLTSIIEYYYMWKTTD	-0.838 ± 0.23
RDEMEEWSASEASLFEEAAEKYGKDFNDIRQDFLPWKSLTSIIEYYYMWKTTD	-0.67 ± 0.12
RDEMEEWSASEASLFEEACEKYGKDFNDIRQDFLPWKSLTSIIEYYYMWKTTD	-1.03 ± 0.34
RDEMEEHSASEASLFEEALEKYGKDFNDIRQDFLPWKSLTSIIEYYYMWKTTD	-0.909 ± 0.14
RDEMEEWSASEASLFEEALEKYGKDFNDIRQDFLPWKSLTSIIEYYYMWKGTD	0.076 ± 0.075
RDEMEEWSASEASLFEEALEKYGKDFNDIRQDFLPWKSLTDIIEYYYMWKTTD	0.05 ± 0.089
RDEMEEWSASEASLFEEALEKYGKDFNDIRQDFLPWKSLTGIIEYYYMWKTTD	-0.954 ± 0.12
RDEMEEWSASEASLFEKALEKYGKDFNDIRQDFLPWKSLTSIIEYYYMWKTTD	-0.197 ± 0.097
RDEMEEWSASEASLFEAALEKYGKDFNDIRQDFLPWKSLTSIIEYYYMWKTTD	-0.598 ± 0.21
RDEMEEWSASEASLFEYALEKYGKDFNDIRQDFLPWKSLTSIIEYYYMWKTTD	-0.39 ± 0.11
RDEMEEWSASEASLFEVALEKYGKDFNDIRQDFLPWKSLTSIIEYYYMWKTTD	-0.584 ± 0.14
RDEMEEWSASEASLFECALEKYGKDFNDIRQDFLPWKSLTSIIEYYYMWKTTD	-0.589 ± 0.1
RDEMEEWSASEASLFEEALEKYGKDFNDIRQDFLPWKSCTSIIEYYYMWKTTD	-0.733 ± 0.17
RDEMEEWSASEASLFEEALEKYGKDFNDIRQDFLPWKSVTSIIEYYYMWKTTD	-0.327 ± 0.16
RDEMEEWSASEASLFEEALEKYGKDFNDIRQDFLPWKSETSIIEYYYMWKTTD	-0.865 ± 0.34
RDEMLEWSASEASLFEEALEKYGKDFNDIRQDFLPWKSLTSIIEYYYMWKTTD	-0.423 ± 0.076
RDEMHEWSASEASLFEEALEKYGKDFNDIRQDFLPWKSLTSIIEYYYMWKTTD	-0.636 ± 0.37
RDEMWEWSASEASLFEEALEKYGKDFNDIRQDFLPWKSLTSIIEYYYMWKTTD	-0.639 ± 0.24
RDEMEEWSASEASLFEEALGKYGKDFNDIRQDFLPWKSLTSIIEYYYMWKTTD	-0.321 ± 0.13
RDEMEEWSASEASLFEEALMKYGKDFNDIRQDFLPWKSLTSIIEYYYMWKTTD	-0.561 ± 0.15
RDEMEEWSASEASLFEEALHKYGKDFNDIRQDFLPWKSLTSIIEYYYMWKTTD	-0.499 ± 0.13
RDEMEEWSASEASLFEEALIKYGKDFNDIRQDFLPWKSLTSIIEYYYMWKTTD	-0.267 ± 0.091
RDEMEEWSASECSLFEEALEKYGKDFNDIRQDFLPWKSLTSIIEYYYMWKTTD	-0.273 ± 0.099
RDEMEEWSASEESLFEEALEKYGKDFNDIRQDFLPWKSLTSIIEYYYMWKTTD	-0.471 ± 0.21
RDEMEEWSASENSLFEEALEKYGKDFNDIRQDFLPWKSLTSIIEYYYMWKTTD	-0.15 ± 0.093

Variant	abundance fitness
RDEMEEWSASERSLFEEALEKYGKDFNDIRQDFLPWKSLTSIIEYYYMWKTTD	0.22 ± 0.067
RDEMEEWSASEASLFEEALEKYGKDFNDIRQDFLPWKSLTSIIYYYYMWKTTD	-0.834 ± 0.15
RDEMEEWSASEASLFEEALEKYGKDFNDIRQDFLPWKSLTSIIGYYYMWKTTD	-0.691 ± 0.12
RDEMEEWSASEASLFEEALEKYGKDFNDIRQDFLPWKSLTSIIVYYYMWKTTD	-0.758 ± 0.18
RDEMEEWSASEASLFEEALEKYGKDFNDIRQDFLPWKSLTSIIEYYYLWKTTD	-0.176 ± 0.15
RDEMEEWSASEASLFEEALEKYGKDFNDIRQDFLPWKSLTSIIEYYYQWKTTD	0.133 ± 0.086
RDEMEEWSASEASLFEEALEKYGKDFNDIRQDFLPWKSLTSIIEYYYRWKTTD	0.323 ± 0.068
RDEMEEWSASEASLFEEALEKYGKDFNDIRQDFLPWKSLFSIIEYYYMWKTTD	-0.875 ± 0.18
RDEMEEWSASEASLFEEALEKYGKDFNDIRQDFLPWKSLWSIIEYYYMWKTTD	-0.898 ± 0.18
RREMEEWSASEASLFEEALEKYGKDFNDIRQDFLPWKSLTSIIEYYYMWKTTD	-0.285 ± 0.15
RFEMEEWSASEASLFEEALEKYGKDFNDIRQDFLPWKSLTSIIEYYYMWKTTD	-0.133 ± 0.47
RAEMEEWSASEASLFEEALEKYGKDFNDIRQDFLPWKSLTSIIEYYYMWKTTD	0.033 ± 0.15
RDDMEEWSASEASLFEEALEKYGKDFNDIRQDFLPWKSLTSIIEYYYMWKTTD	-0.006 ± 0.079
RDVMEEWSASEASLFEEALEKYGKDFNDIRQDFLPWKSLTSIIEYYYMWKTTD	-0.151 ± 0.095
RDEMEEWSASEASLFEEALEKYGKDFNDIRQDFLPYKSLTSIIEYYYMWKTTD	-0.615 ± 0.082
RDEMEEWSASEASLFEEALEKYGKDFNDIRQDFLPIKSLTSIIEYYYMWKTTD	-0.874 ± 0.11
RDEMEEWSASEASLFEEALEKYGKDFNDIRQDFLPLKSLTSIIEYYYMWKTTD	-0.749 ± 0.082
RDEMEEWSAFEASLFEEALEKYGKDFNDIRQDFLPWKSLTSIIEYYYMWKTTD	-0.216 ± 0.13
RDEMEEWSAAEASLFEEALEKYGKDFNDIRQDFLPWKSLTSIIEYYYMWKTTD	-0.154 ± 0.087
RDEMEEWSASEASLFEEELEKYGKDFNDIRQDFLPWKSLTSIIEYYYMWKTTD	-0.439 ± 0.27
RDEMEEWSASEASLFEECLEKYGKDFNDIRQDFLPWKSLTSIIEYYYMWKTTD	-0.32 ± 0.1
RDEMEEWSASEASLFEETLEKYGKDFNDIRQDFLPWKSLTSIIEYYYMWKTTD	-1 ± 0.17
RDEMEEWSASEASLFEEGLEKYGKDFNDIRQDFLPWKSLTSIIEYYYMWKTTD	0.438 ± 0.098
RDEMEEWSASEASLFEEALEKYGKTFNDIRQDFLPWKSLTSIIEYYYMWKTTD	-0.838 ± 0.17
